Data taken from patent US20220332821A1 (Novartis, published 2022).

How the values were obtained:
[1] = target: T1, soluble BCMA (UniProt Q02223 1-54); experiment: cell-based or functional assay
T1 sequence (looked up): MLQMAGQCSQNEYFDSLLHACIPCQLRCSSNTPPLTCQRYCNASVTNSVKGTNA

[2] = target: T2, BCMA on KMS11 myeloma cells (UniProt Q02223 1-184); experiment: cell-based or functional assay
T2 sequence (looked up): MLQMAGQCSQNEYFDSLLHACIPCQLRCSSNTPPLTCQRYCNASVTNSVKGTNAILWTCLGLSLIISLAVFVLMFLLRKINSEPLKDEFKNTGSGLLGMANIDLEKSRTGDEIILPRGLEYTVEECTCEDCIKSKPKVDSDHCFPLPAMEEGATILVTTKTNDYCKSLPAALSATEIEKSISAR

[3] = target: T3, Human CD3-biotin (human); experiment: method not stated; mean of three biological replicates
T3 chain: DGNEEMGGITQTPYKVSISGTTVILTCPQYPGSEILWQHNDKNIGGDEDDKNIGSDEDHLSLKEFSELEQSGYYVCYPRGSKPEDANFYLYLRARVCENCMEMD

[4] = target: T4, Cyno BCMA-Fc (cynomolgus, UniProt A0A2K5UD97 1-53); experiment: as above
T4 construct: not shown: Fc part
T4 sequence (A0A2K5UD97 entry or part of it): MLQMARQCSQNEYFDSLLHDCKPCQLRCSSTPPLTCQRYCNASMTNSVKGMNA

[5] = target: T5, Mouse BCMA-Fc (mouse, UniProt O88472 1-49, limits assumed, not fully specified); experiment: as above
T5 construct: not shown: Fc part
T5 chain (looked up): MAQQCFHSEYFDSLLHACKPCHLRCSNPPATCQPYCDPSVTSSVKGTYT

B1: BSBM3 (bispecific antibody)
heavy: not shown
light: QSALTQPASVSGSPGQSITISCTGTSSDVGGYNYVSWYQQHPGKAPKLMIYDVSNRLRGVSNRFSGSKSGNTASLTISGLQAEDEADYYCSSYTSSSALYVFGSGTKVTVLGQPKAAPSVTLFPPSSEELQANKATLVCLISDFYPGAVTVAWKADSSPVKAGVETTTPSKQSNNKYAASSYLSLTPEQWKSHRSYSCQVTHEGSTVEKTVAPTECS
chain: not shown
notes: Heterodimeric IgG1 format: anti-BCMA Fab half antibody and anti-CD3 scFv-Fc half antibody; also called BSMB3
[1]
  EC30 in RTCC assay, fold increase with 30 ng/mL soluble BCMA: 6 fold
  EC30 in RTCC assay, fold increase with 100 ng/mL soluble BCMA: 15 fold
  EC30 in RTCC assay, fold increase with 300 ng/mL soluble BCMA: 41 fold
[2]
  EC50 in RTCC assay (without added recombinant soluble BCMA): ~0.07 µg/mL
  EC50 in RTCC assay, BSBM3 with AL-102 (gamma secretase inhibitor that raises surface BCMA): 0.02 nM
  EC50 of KMS11-Luc cell death in RTCC assay, BSBM3 alone: 1 nM
[3]
  Kd: 8.78 nM
[4]
  Kd: 1.29 nM
[5]
  Kd: 1.15 nM
